The text below walks through data of patent publication US6123948.

This experiment has as its target HPV-6 L2E7 fusion protein (encoded by plasmid pGW53: pelB leader, HPV-6 L2, HPV-6 E7, His Tag) (human papillomavirus type 6 (HPV-6), clinical isolate H26) (UniProt P06464).

For “draining (axillary) lymph node cells from B6CBA mice immunized with L2E7/Alum (cells without a defined receptor)”, the incorporation of tritiated thymidine (in-vitro lymphoproliferative response) (stimulation index) was 50.
